Reference: patent US20030082643A1 (Bristol-Myers Squibb, published 2003)

What was measured:
[1] = biological target: T1, soluble recombinant CD89 (human, UniProt P24071 22-227, limits assumed); experiment: ELISA
T1 construct: Soluble recombinant CD89, coated on ELISA plates, immobilised on BIAcore chips or in solution; also called sCD89; recombinant soluble CD89 antigen
Protocol: Solid-phase ELISA based assays were employed in the binding studies. Briefly, soluble recombinant CD89 in PBS was coated onto 96-well microtiter plates (1 μg/ml) and incubated overnight at room temperature. The plates were then washed with PBS-0.2%Tween-20 (PBST) and blocked with chicken serum albumin in PBST for 1 hour at room temperature. Supernatants from the anti-CD89 producing hybridomas or purified antibody (in PBS) were added to the wells and incubated for 2 hours at room temperature. The plates were washed with PBST as above and then incubated with 50 μl of HRP-conjugated goat-anti-human for 1 hour at room temperature. After washing, 100 μl of ABTS (150 mg 2,2′-azino-bis (3-ethylbenzthiazoline-6-sulfonic acid in 500 ml of 0.1 M citric acid, pH 4.35)/H₂O₂ (10 μl 30% H₂O₂ per 10 ml of ABTS solution) chromagen/substrate solution was added to each well and the samples read with a microplate reader at a wavelength of 405 nm.
Hybridomas which produced human IgG that bound CD89 were further characterized for isotype using ELISA (Human Kappa) (same protocol described above). […] Purified antibodies were extensively dialyzed against 0.3 M sodium carbonate buffer, pH 9.5, for labeling with […] (FITC). […]

[2] = biological target: T2, human CD89 expressed on cells (human, UniProt P24071 22-287); experiment: flow cytometry on 2a1.6/CD89 cells, human PMNL and PMNL of human-CD89 transgenic mice
T2 construct: whole, on cells; also called FcalphaRI; 2a1.6/CD89 cells
T2 sequence (P24071 22-287): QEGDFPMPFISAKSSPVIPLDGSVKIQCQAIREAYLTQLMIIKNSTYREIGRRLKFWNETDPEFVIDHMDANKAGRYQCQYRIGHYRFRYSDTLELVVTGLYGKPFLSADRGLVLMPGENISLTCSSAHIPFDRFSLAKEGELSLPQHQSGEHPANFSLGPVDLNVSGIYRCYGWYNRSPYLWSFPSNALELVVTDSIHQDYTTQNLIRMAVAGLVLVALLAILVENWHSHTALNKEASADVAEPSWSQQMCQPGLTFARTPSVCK

T1 sequence (P24071 22-227 limits assumed): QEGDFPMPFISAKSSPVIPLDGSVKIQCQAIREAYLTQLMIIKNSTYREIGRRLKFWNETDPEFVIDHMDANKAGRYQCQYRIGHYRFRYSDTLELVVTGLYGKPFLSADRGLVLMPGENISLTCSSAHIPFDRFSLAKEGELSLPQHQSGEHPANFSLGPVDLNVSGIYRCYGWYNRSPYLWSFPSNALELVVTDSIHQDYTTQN

B1: human monoclonal antibody (HuMAb) 8.2 (antibody, V domains shown)
VH: QVQLVESGGGVVQPGRSLRLSCAASGFTFSSYAMHWVRQAPGKGLEWVAVISYDGRNKDYADSVKGRFTISRDNSKNTLYLQMNSLRAEDTAVHYCARLDWGYDAFDIWGQGTMVTVSS
VL: not shown
notes: Human IgG1 kappa from hybridoma; also called 8D2
Does B1 bind [1]?
Result: binds

Does B1 bind [2]?
Result: binds
